In the supplement of paper PMC10065799, “High-throughput profiling of sequence recognition by tyrosine kinases and SH2 domains using bacterial peptide display” (eLife, 2023):

How the values were obtained:
Hck = Hck (UniProt P08631); assay: phosphorylation enrichment, bacterial display (enrichment ratio); higher = better substrate or ligand; peptides without Tyr show the background
EPHB2 = EPHB2 (UniProt P29323); assay: as above
Fer (mouse) = assay: as above
Fyn = Fyn (UniProt P06241); assay: as above
EPHB1 = EPHB1 (UniProt P54762); assay: as above
Fes = Fes (UniProt P07332); assay: as above
Chain of Fes (P07332 whole entry, looked up): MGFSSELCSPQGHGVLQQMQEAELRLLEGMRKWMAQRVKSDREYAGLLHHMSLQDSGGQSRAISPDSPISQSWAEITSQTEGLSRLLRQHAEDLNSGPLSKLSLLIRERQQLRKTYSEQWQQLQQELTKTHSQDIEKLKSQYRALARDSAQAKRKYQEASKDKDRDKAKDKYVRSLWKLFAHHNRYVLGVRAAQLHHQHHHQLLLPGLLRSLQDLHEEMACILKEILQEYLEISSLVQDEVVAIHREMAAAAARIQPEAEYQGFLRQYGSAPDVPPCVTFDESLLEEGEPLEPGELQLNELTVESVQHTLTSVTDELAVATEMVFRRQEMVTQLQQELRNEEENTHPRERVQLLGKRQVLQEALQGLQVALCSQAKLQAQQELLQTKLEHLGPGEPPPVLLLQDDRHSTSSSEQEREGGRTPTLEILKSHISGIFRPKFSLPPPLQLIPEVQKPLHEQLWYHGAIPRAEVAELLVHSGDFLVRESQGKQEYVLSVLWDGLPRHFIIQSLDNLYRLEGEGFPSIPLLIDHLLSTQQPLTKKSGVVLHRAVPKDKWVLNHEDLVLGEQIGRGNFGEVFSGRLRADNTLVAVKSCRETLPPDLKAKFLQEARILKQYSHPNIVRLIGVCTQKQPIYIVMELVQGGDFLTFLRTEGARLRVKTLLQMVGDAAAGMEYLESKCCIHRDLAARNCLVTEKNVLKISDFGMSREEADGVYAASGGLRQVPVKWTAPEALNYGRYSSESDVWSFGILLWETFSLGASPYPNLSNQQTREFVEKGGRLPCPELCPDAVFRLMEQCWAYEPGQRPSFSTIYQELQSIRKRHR

AncSZ = assay: as above
FGFR1 = FGFR1 (UniProt P11362); assay: as above
c-Abl (mouse) = assay: as above
FGFR3 = FGFR3 (UniProt P22607); assay: as above
Chain of FGFR3 (P22607 whole entry, looked up): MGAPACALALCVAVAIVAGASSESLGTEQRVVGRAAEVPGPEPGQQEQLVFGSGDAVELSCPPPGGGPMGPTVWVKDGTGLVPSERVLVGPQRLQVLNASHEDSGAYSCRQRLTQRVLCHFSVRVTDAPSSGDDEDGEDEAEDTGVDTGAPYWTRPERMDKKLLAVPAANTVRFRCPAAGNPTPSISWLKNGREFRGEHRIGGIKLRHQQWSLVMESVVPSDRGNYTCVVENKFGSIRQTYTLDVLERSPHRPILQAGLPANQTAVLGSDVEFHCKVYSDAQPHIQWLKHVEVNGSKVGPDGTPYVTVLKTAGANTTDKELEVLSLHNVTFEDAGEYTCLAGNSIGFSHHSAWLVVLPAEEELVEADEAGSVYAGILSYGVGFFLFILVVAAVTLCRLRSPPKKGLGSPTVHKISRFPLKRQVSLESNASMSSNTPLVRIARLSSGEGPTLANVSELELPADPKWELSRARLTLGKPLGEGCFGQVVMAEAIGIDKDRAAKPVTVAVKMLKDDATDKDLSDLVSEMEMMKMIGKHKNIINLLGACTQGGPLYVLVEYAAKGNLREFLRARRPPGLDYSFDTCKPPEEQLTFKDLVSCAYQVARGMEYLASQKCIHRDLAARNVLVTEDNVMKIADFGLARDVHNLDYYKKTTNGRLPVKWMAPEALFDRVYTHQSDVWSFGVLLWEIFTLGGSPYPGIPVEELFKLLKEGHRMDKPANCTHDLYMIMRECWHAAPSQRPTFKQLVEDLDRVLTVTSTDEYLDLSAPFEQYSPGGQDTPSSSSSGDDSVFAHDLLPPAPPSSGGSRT

Jak2 = Jak2 (UniProt O60674); assay: as above
Chain of Jak2 (O60674 whole entry, looked up): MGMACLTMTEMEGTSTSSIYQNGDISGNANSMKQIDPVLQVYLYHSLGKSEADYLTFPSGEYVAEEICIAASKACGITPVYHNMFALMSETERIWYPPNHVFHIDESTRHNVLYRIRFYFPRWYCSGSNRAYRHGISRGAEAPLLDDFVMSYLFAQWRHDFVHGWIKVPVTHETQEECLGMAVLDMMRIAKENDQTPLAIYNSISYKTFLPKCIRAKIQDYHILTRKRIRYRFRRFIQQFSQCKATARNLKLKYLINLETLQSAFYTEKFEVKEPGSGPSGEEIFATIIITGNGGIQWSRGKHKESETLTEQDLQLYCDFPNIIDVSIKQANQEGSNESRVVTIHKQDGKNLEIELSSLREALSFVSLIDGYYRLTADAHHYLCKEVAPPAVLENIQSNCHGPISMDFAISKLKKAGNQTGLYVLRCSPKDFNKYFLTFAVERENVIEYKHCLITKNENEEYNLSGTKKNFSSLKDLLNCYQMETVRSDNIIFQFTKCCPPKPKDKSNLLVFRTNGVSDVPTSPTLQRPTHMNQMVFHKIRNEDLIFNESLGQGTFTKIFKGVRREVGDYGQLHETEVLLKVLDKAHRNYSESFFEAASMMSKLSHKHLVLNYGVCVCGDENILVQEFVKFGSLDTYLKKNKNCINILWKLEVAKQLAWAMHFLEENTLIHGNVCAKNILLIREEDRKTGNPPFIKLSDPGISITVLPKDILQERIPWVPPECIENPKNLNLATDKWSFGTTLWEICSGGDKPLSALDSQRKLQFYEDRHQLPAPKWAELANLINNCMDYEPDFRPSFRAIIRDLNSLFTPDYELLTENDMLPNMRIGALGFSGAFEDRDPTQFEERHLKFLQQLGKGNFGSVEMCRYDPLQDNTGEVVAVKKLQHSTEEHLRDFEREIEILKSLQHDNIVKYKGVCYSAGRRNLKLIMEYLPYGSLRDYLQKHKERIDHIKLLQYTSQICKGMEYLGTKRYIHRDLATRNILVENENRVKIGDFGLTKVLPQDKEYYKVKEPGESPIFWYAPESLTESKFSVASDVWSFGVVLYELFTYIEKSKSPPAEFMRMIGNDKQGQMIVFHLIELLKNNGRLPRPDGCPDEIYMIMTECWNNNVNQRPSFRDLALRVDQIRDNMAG

c-Src = assay: as above
MERTK = MERTK (UniProt Q12866); assay: as above
Chain of MERTK (Q12866 whole entry, looked up): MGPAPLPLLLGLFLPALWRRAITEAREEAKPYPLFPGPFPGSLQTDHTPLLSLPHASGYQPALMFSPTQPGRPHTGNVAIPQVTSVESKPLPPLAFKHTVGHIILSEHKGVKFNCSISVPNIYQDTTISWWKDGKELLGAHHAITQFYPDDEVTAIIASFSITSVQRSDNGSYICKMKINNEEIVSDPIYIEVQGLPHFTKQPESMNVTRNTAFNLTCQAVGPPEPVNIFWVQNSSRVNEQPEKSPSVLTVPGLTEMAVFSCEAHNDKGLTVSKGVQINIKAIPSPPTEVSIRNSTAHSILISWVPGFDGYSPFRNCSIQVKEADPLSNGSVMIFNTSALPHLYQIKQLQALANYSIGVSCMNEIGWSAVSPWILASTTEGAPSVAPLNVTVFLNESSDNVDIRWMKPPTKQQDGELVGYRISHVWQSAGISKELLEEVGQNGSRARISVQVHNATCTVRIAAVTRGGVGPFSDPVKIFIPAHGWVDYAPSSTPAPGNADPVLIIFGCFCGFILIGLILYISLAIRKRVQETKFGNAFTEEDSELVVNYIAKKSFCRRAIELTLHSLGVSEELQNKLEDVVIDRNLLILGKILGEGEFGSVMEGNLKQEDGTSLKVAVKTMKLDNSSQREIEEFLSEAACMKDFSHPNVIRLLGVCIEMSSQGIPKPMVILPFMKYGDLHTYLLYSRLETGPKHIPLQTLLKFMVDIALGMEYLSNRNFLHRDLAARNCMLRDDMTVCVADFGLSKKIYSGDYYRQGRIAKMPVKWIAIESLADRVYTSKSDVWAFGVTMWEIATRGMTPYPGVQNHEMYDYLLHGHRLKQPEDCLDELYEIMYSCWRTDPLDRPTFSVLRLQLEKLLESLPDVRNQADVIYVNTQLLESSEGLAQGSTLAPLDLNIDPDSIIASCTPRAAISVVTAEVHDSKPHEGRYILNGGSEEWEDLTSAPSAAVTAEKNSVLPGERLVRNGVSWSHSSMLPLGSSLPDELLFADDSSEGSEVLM

c-Src SH2 = assay: SH2 binding enrichment of the phosphorylated peptide, bacterial display (enrichment ratio); higher = better substrate or ligand; peptides without Tyr show the background
SHP2-C SH2 = assay: as above
Grb2 SH2 = Grb2 SH2 (UniProt P62993); assay: as above
Chain of Grb2 SH2 (P62993 whole entry, looked up, the tested form may be a part): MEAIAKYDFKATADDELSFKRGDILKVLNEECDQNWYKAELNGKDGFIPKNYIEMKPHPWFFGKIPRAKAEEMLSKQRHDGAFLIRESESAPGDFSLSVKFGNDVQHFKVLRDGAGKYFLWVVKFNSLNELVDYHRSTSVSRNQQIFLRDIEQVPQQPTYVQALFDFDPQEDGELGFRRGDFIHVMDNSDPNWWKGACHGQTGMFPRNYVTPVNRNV
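For SH2 binding enrichment of the phosphorylated peptide, bacterial display in this document: peptide library displayed on the E. coli surface as eCPX fusions, selected cells deep-sequenced, score is each peptide's frequency after selection divided by its frequency in the input.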
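For phosphorylation enrichment, bacterial display in this document: 11-residue human phosphosite peptides and single-mutation variants displayed on the E. coli surface, counted by deep sequencing, each peptide's frequency after selection divided by its frequency in the unselected input library; frequency after pTyr selection over input frequency; kinase dosed for 20-30% of maximal phosphorylation in three min.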

Chain of EPHB2 (P29323 whole entry, looked up): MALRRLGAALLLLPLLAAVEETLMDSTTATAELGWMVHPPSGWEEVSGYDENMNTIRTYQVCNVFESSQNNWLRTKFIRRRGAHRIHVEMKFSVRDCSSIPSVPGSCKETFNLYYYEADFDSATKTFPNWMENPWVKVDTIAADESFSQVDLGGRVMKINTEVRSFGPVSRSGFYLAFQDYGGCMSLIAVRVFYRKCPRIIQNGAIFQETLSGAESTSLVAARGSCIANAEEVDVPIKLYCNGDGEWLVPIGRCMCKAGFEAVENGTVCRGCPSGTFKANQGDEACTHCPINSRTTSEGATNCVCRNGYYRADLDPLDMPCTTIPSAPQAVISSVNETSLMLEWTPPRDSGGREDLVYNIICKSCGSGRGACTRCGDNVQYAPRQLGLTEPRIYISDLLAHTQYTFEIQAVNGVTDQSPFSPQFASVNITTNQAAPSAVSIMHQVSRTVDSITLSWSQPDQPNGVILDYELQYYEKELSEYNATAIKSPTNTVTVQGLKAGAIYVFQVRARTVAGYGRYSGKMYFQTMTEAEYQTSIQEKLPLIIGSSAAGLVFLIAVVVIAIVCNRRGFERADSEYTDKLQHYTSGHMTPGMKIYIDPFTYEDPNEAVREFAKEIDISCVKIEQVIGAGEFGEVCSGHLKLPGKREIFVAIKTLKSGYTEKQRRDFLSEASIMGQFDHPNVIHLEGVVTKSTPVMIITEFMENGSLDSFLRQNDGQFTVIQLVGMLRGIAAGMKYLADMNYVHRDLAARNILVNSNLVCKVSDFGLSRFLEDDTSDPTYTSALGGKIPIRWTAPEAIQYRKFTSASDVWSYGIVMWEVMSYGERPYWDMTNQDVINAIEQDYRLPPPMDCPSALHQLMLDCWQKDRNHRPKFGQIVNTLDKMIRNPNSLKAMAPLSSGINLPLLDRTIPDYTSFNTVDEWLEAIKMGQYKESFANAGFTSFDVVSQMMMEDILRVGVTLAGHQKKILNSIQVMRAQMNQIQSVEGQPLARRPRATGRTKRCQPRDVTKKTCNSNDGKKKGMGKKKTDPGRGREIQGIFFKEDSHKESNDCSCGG

Row | Sequence | phosphorylation enrichment (Hck) | phosphorylation enrichment (EPHB2) | phosphorylation enrichment (Fer (mouse)) | phosphorylation enrichment (Fyn) | phosphorylation enrichment (EPHB1) | phosphorylation enrichment (Fes) | phosphorylation enrichment (AncSZ) | phosphorylation enrichment (FGFR1) | phosphorylation enrichment (c-Abl (mouse)) | phosphorylation enrichment (FGFR3) | phosphorylation enrichment (Jak2) | phosphorylation enrichment (c-Src) | phosphorylation enrichment (MERTK) | SH2 binding enrichment (c-Src SH2) | SH2 binding enrichment (SHP2-C SH2) | SH2 binding enrichment (Grb2 SH2)
1 | ATVRPYRPFII [LRP5_Y1528_A1525V_YF] | 0.462 | 0.336 | 0.406 | 0.397 | 0.438 | 0.61 | 0.653 | 0.418 | 0.505 | 0.459 | 0.644 | 0.493 | 0.395 | 0.616 | 0.79 | 0.953
2 | AVDDKYSRREE [SART1_Y685_I681V] | 0.533 | 0.516 | 0.458 | 0.567 | 0.453 | 0.977 | 0.887 | 0.457 | 0.478 | 0.581 | 0.679 | 0.427 | 0.426 | 0.586 | 0.925 | 1.02
3 | AVLALHNSTRD [TGFB1_Y81_Y81H] | 0.359 | 0.323 | 0.38 | 0.423 | 0.354 | 0.647 | 0.546 | 0.346 | 0.494 | 0.387 | 0.519 | 0.322 | 0.398 | 0.517 | 0.588 | 0.752
4 | AVLQLYIFVAT [CFTR_Y1014_P1013L] | 0.562 | 0.599 | 0.573 | 0.516 | 0.766 | 1.37 | 1.3 | 0.462 | 0.837 | 1.09 | 1.24 | 0.567 | 0.498 | 0.439 | 0.701 | 1
5 | CDKEYYSVHNK [MET_Y1235_Y1230C] | 0.788 | 0.69 | 0.601 | 0.608 | 0.734 | 1.2 | 2.06 | 2.49 | 0.949 | 2.09 | 1.32 | 0.761 | 0.573 | 0.51 | 0.553 | 0.655
6 | CEHRGFLFLAI [TEK_Y897_Y897F_YF] | 0.434 | 0.513 | 0.515 | 0.403 | 0.392 | 1.16 | 0.949 | 0.484 | 0.907 | 0.651 | 1.06 | 0.506 | 0.442 | 0.759 | 0.996 | 1.47
7 | CENNRYGMGAS [PDHA1_Y227_T231A] | 0.392 | 0.421 | 0.365 | 0.405 | 0.403 | 0.754 | 0.655 | 0.413 | 0.594 | 0.476 | 0.629 | 0.349 | 0.324 | 0.457 | 0.723 | 0.849
8 | CITIHYNYMCN [TP53_Y234_T230I] | 0.44 | 0.515 | 0.569 | 0.423 | 0.605 | 1.01 | 0.923 | 0.474 | 0.582 | 0.662 | 0.881 | 0.381 | 0.389 | 1.57 | 1.44 | 1.56
9 | CNPRRYPVLMS [OR2T1_Y182_L180R] | 0.373 | 0.496 | 0.358 | 0.501 | 0.49 | 0.833 | 0.625 | 0.384 | 0.59 | 0.485 | 0.822 | 0.494 | 0.411 | 1.18 | 0.954 | 1.1
10 | CPFNLYAEQLS [HGD_Y40_YF] | 0.772 | 0.816 | 0.636 | 0.642 | 1.16 | 1.37 | 1.15 | 0.577 | 0.77 | 0.698 | 0.935 | 0.696 | 0.769 | 0.645 | 0.708 | 0.892
11 | CPPKVYELMIA [ABL2_Y515_R519I] | 1.03 | 2.25 | 7.5 | 0.916 | 7.46 | 1.34 | 1.24 | 1.34 | 0.766 | 0.959 | 1.2 | 1.99 | 5.18 | 1.44 | 0.658 | 0.817
12 | CSTIHYNYMCN [TP53_Y234_T230S] | 0.399 | 0.542 | 0.555 | 0.461 | 0.586 | 0.758 | 0.784 | 0.545 | 0.411 | 0.585 | 0.656 | 0.435 | 0.375 | 6.46 | 3.83 | 1.11
13 | CTTIHFNFMCN [TP53_Y234_Y234F_YF] | 0.582 | 0.656 | 0.569 | 0.484 | 0.604 | 1.31 | 1.07 | 0.614 | 0.824 | 0.83 | 1.33 | 0.507 | 0.525 | 1.93 | 2.02 | 2.01
14 | CTTIHYNDMCN [TP53_Y234_Y236D] | 0.455 | 0.528 | 0.421 | 0.422 | 0.451 | 0.85 | 1.03 | 0.485 | 0.589 | 0.539 | 0.724 | 0.492 | 0.396 | 2.42 | 0.658 | 0.756
15 | CTTIHYNFMCF [TP53_Y234_N239Y_YF] | 0.451 | 0.522 | 0.671 | 0.414 | 0.608 | 1.12 | 1.04 | 0.621 | 0.683 | 0.738 | 0.913 | 0.474 | 0.409 | 1.58 | 2.01 | 1.95
16 | CTTIHYNFMWN [TP53_Y234_C238W_YF] | 0.543 | 0.727 | 1.04 | 0.508 | 0.725 | 1.66 | 1.43 | 0.621 | 1.09 | 0.981 | 1.5 | 0.59 | 0.717 | 0.669 | 0.802 | 0.924
